Key:
HCMV AD169R = assay: Neutralization by fully human versus chimeric antibody versions; assay type: cell-based, Human cytomegalovirus; details: human IgG1 Fc versus mouse Fc
Experimental: Increasing concentrations of monoclonal antibodies (0.016-50 μg/mL) were incubated with AD169R (MOI 0.2) to assess neutralizing capacity. Percent infection was quantified using GFP expression at 18 hpi and normalized based on infection with virus alone (no antibody). CMV hyperimmune globulin (CytoGam®) was used as a control (trace on the upper right in FIGS. 8A, 8B, 8C, and 8D). FIG. 8A. […] FIG. 8B. Fully human (hu, comprising human variable and human constant regions) and chimeric (ms, comprising human variable and murine constant regions) versions of 9A12. FIG. 8C. Fully human (hu, comprising human variable and human constant regions) and chimeric (ms, comprising human variable and murine constant regions) versions of 13G1. FIG. 8D. Fully human (hu, comprising human variable and human constant regions) and chimeric (ms, comprising human variable and murine constant regions) versions of 14E1.
For this, the mouse Fc region of these mAbs was replaced with the human IgG1 Fc region.

[1] = system: recombinant HCMV pentamer (strain VR1814) consisting of gH, gL, UL128, UL130 and UL131A; assay: Biolayer interferometry (Octet RED) KD determination; assay type: binding, Human cytomegalovirus; details: for kon: association 3 minutes; for kdis: dissociation 3 minutes in PBS
Experimental: Biolayer interferometry assays were performed using the Octet RED instrument (ForteBio, Inc.) to determine the association (kon) and dissociation (kdis) constants for each antibody. Purified monoclonal antibody was loaded onto the anti-mouse Fc IgG capture (AMC) biosensors using 5-fold dilutions (50-0.016 μg/mL in PBS) for 10 minutes. To determine the kon, the sensors were exposed to the recombinant HCMV pentamer (strain VR1814) consisting of gH, gL, UL128, UL130 and UL131A (Native Antigen, CMV-PENT-100) at a constant concentration of 100 μg/mL in PBS for 3 minutes. To determine the kdis, dissociation was measured over the course of 3 minutes while the sensors were in PBS buffer. KD values were calculated as a ratio of […].
To examine this further, 293 Expi cells were transfected with wildtype gH, wildtype gL, cotransfected with gH and gL (gH+gL), transfected with a single plasmid expressing both gH and gL (gH/gL) or co-transfected a variety of gH mutants and gL. Three days post transfection the cells were harvested and stained with unlabeled primary at 0.5 μg/mL using the antibodies indicated. Transfection efficiency was determined by measuring GFP expression on day 3 and binding was determined by percent Alexa Fluor 647 positive cells using a conjugated secondary. […] The binding profile for 1G9 is most similar to 10F8. Although the ratios of gH, gL and gO plasmid were 1:1:1 it is not certain how efficiently the trimer was assembled following transfection. […] To discern minute differences in antibody binding biolayer interferometry was used, immobilizing each of the purified monoclonal antibodies (50-0.016 μg/mL) onto anti-mouse IgG Fc capture (AMC) biosensors and exposing the sensors to recombinant pentamer (100 μg/mL).

[2] = system: CMV TB40/E infected fibroblasts; assay: SCID mouse gelfoam implant model of CMV proliferation; assay type: in vivo, SCID mice; details: fully human mAbs 4 or 18 mg/kg, ganciclovir 50 mg/kg; i.p. every three days; day ten; versus isotype control
Experimental: At day ten post-implantation, the cells were released from the gelfoam and DNA extracted from the cells was subjected to qPCR for the HCMV UL123 and β-actin genes. The relative CMV levels cells were determined from Ct values of qPCR analysis (in triplicate) from cells collected from three mice/treatment. Statistical tests were performed using ordinary one-way ANOVA with comparisons to isotype treated cells as a control and a Dunnett's post-test; **, p<0.01; ***, p<0.001; ****, p<0.0001.
The gelfoam was implanted subcutaneously in three mice per group. […] Treatments were administrated every three days for nine days. At day ten post-implant, the gelfoam was removed and cells were released from the gel foam by collagenase treatment. The total DNA was harvest from the cells, quantified, and subjected to qPCR for UL123 (CMV gene) and b-actin (housekeeping geen) using SYBR green to evaluate virus proliferation. The qPCR analysis was performed in triplicate from three animals to determine the Ct values for UL123 and b-actin to calculate the relative levels of CMV DNA from the gelfoam samples.

HCMV gB (U373-gB cells) = assay: Flow cytometry binding to U373-gB cells; set-up: species or system Human cytomegalovirus
HCMV = assay: Virus neutralization, summary statements across cell types and strains; assay type: cell-based, Human cytomegalovirus; details: MRC5; TB40/E, AD169R, TR, Towne
Experimental: AD169R^BADrUL131, TB40E, TR, or Towne was pre-incubated with monoclonal antibodies (starting dilution of 100 μg/mL antibody) was diluted using 5 fold dilutions to achieve a final range of 50-0.016 μg/mL antibody after addition to 25 μL of media containing virus; final MOI 0.2) and incubated at 4° C. for 1 hr before the inoculum was added to the appropriate cell types (ARPE-19, HTR-svNeo, MRC5, or NHDF cells at 10,000 cells per well) for 2 hrs at 37° C., 5% CO2. Following infection, the inoculum was removed and replaced with 100 μL complete DMEM/F-12 media before an overnight incubation at 37° C., 5% CO2.
Cells were fixed using 4% paraformaldehyde (PFA) for 20 minutes at room temp. Cells were then permeabilized using 0.3% Triton X-100 (Thermo Fisher, #HFH10) in PBS and stained with an affinity-purified, polyclonal rabbit anti-IE1-1/2 (0.7 ng/ml) primary and an anti-rabbit Alexa Fluor 647 (1:1000) secondary. To quantify total cells per well, Hoechst (Molecular Probes, #H3570) was diluted 1:100,000 in PBS and incubated with cells for 20 minutes at room temp. Virus neutralization was quantified using a Celigo cytometer (Nexelcom Bioscience). Percent infection was calculated using ((#IE1-1+)/(#Hoechst+))*100 events per well and normalized to the percent infection when an irrelevant, non-neutralizing, or no antibody was used.
The student's unpaired, two tailed t tests were performed using the GraphPad Prism software (La Jolla, CA). An asterisk identifies statistical significance of P<0.05 or less.

HCMV BADrUL131 = assay: Dissemination / focus forming unit (FFU) assay in ARPE-19 cells; assay type: cell-based, Human cytomegalovirus
Experimental: ARPE-19 or NHDF cells were plates at 50,000 cells per well in a 24 well and infected the following day. TB40/E (MOI 0.01) and AD169RBAD^rUL131 (MOI 0.1 & 0.01) was incubated with either 10 μg/mL or 0.5 μg/mL of antibody one hour prior to addition to cells. Following a 2 hr incubation at 37° C., 5% CO2 the inoculum was removed, and cells were overlaid with 1% low melt temperature sea agarose overlay. The overlay was allowed to solidify at room temp and then 500 μL of media was added before cells were put back into the incubator. At 7 days post infection, the cells were scanned using the brightfield and GFP filters and then placed back into the tissue culture incubator until the assay was stopped by fixation and immunostaining on day 10 or 14 as indicated.
Next, a focus forming unit (FFU) assay was optimized to examine the antibodies ability to block viral replication and dissemination over multiple infection cycles. […] Once the assay was terminated at Day 10 or 14, the cells were fixed and performed immunostaining to quantify total cells by Hoechst or infection using IE1-1 as readout for infection. […] The number of FFUs was quantified per well, using 10,000 μm^2 as a cutoff for plaque area. […] Images were taken on day 7 post infection and the relative number of plaques per well was calculated compared to wells that received an irrelevant control antibody M2E10. […]

gH/gL/gO trimer = target: T1, gH/gL/gO trimer (Human cytomegalovirus, UniProt F5HCH8+Q6SW67, DEL177-177/E103D/E61Q/G77R); assay: Binding to 293 Expi cells transfected with gH/gL/gO; details: 3 days post transfection
T1 construct: expressed in transfected cells; host or cells: 293 Expi (Expi293F) cells
Experimental: (§1) gH mutants were cloned into pcDNA 3.1 and co-transfected with gL (1:1 ratio, 6 μg plasmid total) with lipofectamine 2000 (Thermo Fisher, #11668019) into 293Expi cells (7.5×10^6). Cells were harvested 3 days post transfection and fixed before being incubated with α-gH antibodies (2 μg/mL) for 1 hr at RT. Cells were washed and then incubated in anti-mouse AF647 conjugated secondary (1:1000) in order to quantify binding. Transfection efficiency was determined using pMAX eGFP plasmid which was spiked in at 0.1 μg per well.
(§2) To examine this further, 293 Expi cells were transfected with wildtype gH, wildtype gL, cotransfected with gH and gL (gH+gL), transfected with a single plasmid expressing both gH and gL (gH/gL) or co-transfected a variety of gH mutants and gL. Three days post transfection the cells were harvested and stained with unlabeled primary at 0.5 μg/mL using the antibodies indicated. Transfection efficiency was determined by measuring GFP expression on day 3 and binding was determined by percent Alexa Fluor 647 positive cells using a conjugated secondary. […] The binding profile for 1G9 is most similar to 10F8. Although the ratios of gH, gL and gO plasmid were 1:1:1 it is not certain how efficiently the trimer was assembled following transfection. […]

gH monomer = target: T2, gH monomer (Human cytomegalovirus, UniProt Q6SW67); assay: Binding to 293 Expi cells transfected with gH alone; details: 3 days post transfection
T2 construct: expressed in transfected cells; host or cells: 293 Expi (Expi293F) cells
Experimental: as §1, §2

B1: 13G1: anti-HCMV gH/gL monoclonal antibody, fusion 3; VH SEQ ID NO:38, VL SEQ ID NO:39; chimeric and fully human IgG1 versions (antibody, V domains shown)
VH: QVTLKESGPVLVKPTETLTLTCTVSGFSLYNARMGVTWIRQPPGKALEWLAHIFSNDERSYTSSLKNRLTISKDTSKSQVVLTMTNMDPVDTATYYCARIDYSNYIGNWFDPWGQGTLVTVSS
VL: DIQMTQSPSSLSASVGDRVTITCRASQSISNYLNWYQQKPGKAPKLLIYAASSLQGGVPSRFSGSGSGTDFTLTISSLQPEDFTTYYCQQSYSTPFTFGGGTKVEIK
modifications: IgG1 constant regions
notes: anti-HCMV gH/gL monoclonal antibody, fusion 3; chimeric and fully human IgG1 versions
- IC50 / neutralizing capacity of fully human version compared to chimeric counterpart (HCMV AD169R): improved IC50 values
- kon [1]: 12900 M⁻¹ s⁻¹
- kdis [1]: 6.51e-05 s⁻¹
- CMV DNA levels (UL123 relative to β-actin, qPCR) [2]: limit CMV infection and proliferation
- binding to the surface of U373-gB cells (HCMV gB (U373-gB cells); live cells, surface): bind non-specifically
- binding to U373-gB cells fixed and permeabilized (HCMV gB (U373-gB cells); permeabilized cells): does not significantly bind
- neutralization of infection across all strains (HCMV): consistently neutralized infection

B2: 14E1 (antibody, V domains shown)
VH: QVQLVQSGAEVKKPGASVKVSCKASGYTFTSYSISWVRQAPGQGLEWMGWINTYNGNTNYAQRVQARVTMTTDTSTSTAYMELRSLRSDDTAVYYCARDHGFFFDYWGQGNLVTVSS
VL: DIQLTQSPSFLSASVGDRVTITCWASQGISSYLAWYQQKPGKAPKLLIYAASTLQSGVPSRFSGSGSGTEFTLTISSLQPEDFATYYCQQLNSYPYTFGQGTQLEIK
- IC50 / neutralizing capacity of fully human version compared to chimeric counterpart (HCMV AD169R): improved IC50 values
- kon [1]: 24400 M⁻¹ s⁻¹
- kdis [1]: 0.00158 s⁻¹
- rank of binding constant within the panel ([1]; recombinant pentamer): weakest
- limiting viral dissemination at low concentration (HCMV BADrUL131): effective

B3: 9A12: anti-HCMV gH/gL monoclonal antibody, fusion 2; VH SEQ ID NO:59, VL SEQ ID NO:60; chimeric and fully human IgG1 versions (antibody, V domains shown)
VH: EVQLVESGGVLVQPGGSLRLSCAASGFTFSSHEMNWVRQAPGKGLEWISYISSTGSTIYDADSVKGRFTISRDNAKNSLYLQMNSLRAEDTAVYYCARSSGWYRNYSYGMDVWGQGTTVTVSS
VL: DIQMAQSPSSLSASVGDRVTITCRASQGIYNYLAWFQQKPGKAPKSLIYAASSLQTGVPSKFSGSGSGTDFTLTISNLQPEDFATYYCQQYNSFPRTFGQGTKVEIK
modifications: IgG1 constant regions
notes: anti-HCMV gH/gL monoclonal antibody, fusion 2; chimeric and fully human IgG1 versions
- IC50 / neutralizing capacity of fully human version compared to chimeric counterpart (HCMV AD169R): remained unchanged
- kon [1]: 24800 M⁻¹ s⁻¹
- kdis [1]: 8.6e-05 s⁻¹
- binding to cells transfected with gH/gL/gO (gH/gL/gO trimer): bound
- CMV DNA levels (UL123 relative to β-actin, qPCR) [2]: limit CMV infection and proliferation
- binding to cells transfected with gH alone (gH monomer): bound
- neutralization of infection across all strains (HCMV): consistently neutralized infection

Source: patent publication US20250129140A1, “ANTI-HCMV ANTIBODIES AND ANTIGEN-BINDING FRAGMENTS THEREOF” (ICAHN SCHOOL OF MEDICINE AT MOUNT SINAI, priority 2021, published 2025)
